Results from paper PMC4643051.

Tests used:
[1] = molecular target: NS1^HA mutant S114A (Dengue virus type 2 (DENV-2), strain 16681); assay: co-IP
[2] = molecular target: NS1^HA mutant W115A (Dengue virus type 2 (DENV-2), strain 16681); assay: co-IP

## Envelope protein (E) of Dengue virus (from UniProt P29990) (natural protein)
[1]
  fold reduction of co-precipitated Envelope against wild-type NS1^HA: 7.5 fold
[2]
  fold reduction of co-precipitated Envelope against wild-type NS1^HA: 3.8 fold
